Source: patent US20080058272A1, “Nonamer Peptides for Cancer Treatment” (priority 2006, published 2008)

T1: HLA-A2 (human), P04439
T1 chain: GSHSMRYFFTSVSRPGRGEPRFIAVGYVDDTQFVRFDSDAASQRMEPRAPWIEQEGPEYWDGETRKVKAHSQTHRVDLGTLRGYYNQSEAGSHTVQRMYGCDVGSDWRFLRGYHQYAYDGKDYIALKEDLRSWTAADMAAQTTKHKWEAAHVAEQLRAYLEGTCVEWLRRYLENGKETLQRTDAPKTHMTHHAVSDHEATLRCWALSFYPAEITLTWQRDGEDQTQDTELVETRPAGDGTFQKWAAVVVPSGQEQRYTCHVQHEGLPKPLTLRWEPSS


Target: T1, HLA-A2 (human), P04439
Test: competitive binding assay (flow cytometry)
Settings: modification not given

Row | Binder | IC50
1 | VLALLVMCI [FAPα16-24 (…)] | 150 µM
2 | ALVCYGPGL [FAPα463-471 (471L) (…)] | 3.9 µM
3 | ALLVMCIVL [FAPα18-26 (…)] | 650 µM
4 | KLLEENKEV [FAPα486-494 (487L, 494V) (…)] | 25.4 µM
5 | KLLEENKEL [FAPα486-494 (487L) (…)] | 21.3 µM
6 | ALVCYGPGV [FAPα463-471 (471V) (…)] | 4.6 µM
